This note sets out measurements from the RNAGym collection of RNA variant scans (doi:10.7554/elife.90254).

B1: OR4K15 (parent)
chain: GUUAACGGUCAUAGGCCAUGGAAACUAGGAGCACCAUUUCGCUGCCAGUGAAGAAAUGAACAAAGAAAAUCUGGGCCAGGCAGGCAUCAAAAGAAAUAGUCUUGCGCUCAACCAGAAAGUCUGUAAUCAUUUUAAGGGUA

This data set covers variants of B1. As to the kind of experiment: self-cleavage, relative activity (ratio to wild type); higher = more cleavage; in vitro, sequencing; the parent is a self-cleaving ribozyme.
Regarding GUUAACGGUCAUAGGCCAUGGAAACUAGGAGUACCAUUUCGCUGCCAGUGAAGAAAUGAACAAAGAAAAUCUGGGCCAGGCAGGCAUCAAAAGAAAUAGUCCUGCGCUCAACCAGAAAGUCUGUAAUCAUUUUAAGGGUA [C32U U102C], the self-cleavage was 1.73. For GUUAACGGUCAUAGGCCAUGGAAACUAGGAGCACCAUUUCGCUGCCAGUGAAGGAAUGAACAAAGAAAAUCUGGGCCAGGCAGGCAUCAAAAGAAAUAGUCUUGCGCUCAACCAGAAAGUCUGUAAUUAUUUUAAGGGUA [A54G C128U], the self-cleavage was determined as 1.08.

Regarding GUUAACGGUCAUAGGCCAUGGAAACUAGGAGCACCAUUUCGCUGCCAGUGAAGAAAUGAACAAAGAAAGUCUGGGCCAGGCAGGCAUCAAAAGAAAUAGUCUUGCGCUCAACCAGAAAGUCUGUAAUCAUUAUAAGGGUA [A69G U132A], the self-cleavage was 0.69.

GUUAACGGUCAUAGGCCAUGGAAACUAGGAGCACCAUUUCGCUGCCAGUGAAGAAAUGAACAAAGAAAAUCUGGGCCAGGCAGGCAUCAAAAGAAAAAGUCUUGCGCUCAACCAGAAAGUCUGUAAUCAUUCUAAGGGUA [U97A U132C]: the self-cleavage worked out at 0.95. Turning to GUUAACGGUCAUAGGCCAUGGAAACUAGGAGCACCAUUUCGCUGCCAGUGAAGAAAUGAACAAGGAAAAUCUGGGCCAGGCAGGCAUCAAAAGAAAUAGUCUUGCGCUCAACCAGAAAGACUGUAAUCAUUUUAAGGGUA [A64G U120A], the self-cleavage is 2.01. As for GUUAACGGUCAUAGGCCAUGGAAACUAGGAGCACCAUUUCGCUGCCAGUGAAGAAAUGAACAAAGAAAAUCUGGGCCAGGCAGGCAUCAAAAGAAAUAGUCUUGCGCUCAAUCAGAAAGUCUGUAAUCAUUUUAAGGGUU [C112U A140U], the figure is 0.01; as for GUUAACGGUCAUAGGCCAUGGAAACUAGGAGCAUCAUUUCGCUGCCAGUGAGGAAAUGAACAAAGAAAAUCUGGGCCAGGCAGGCAUCAAAAGAAAUAGUCUUGCGCUCAACCAGAAAGUCUGUAAUCAUUUUAAGGGUA [C34U A52G], 0.85. Take GUUAACGGUCAUAGGCCACGGAAACUAGGAGCACCAUUUCGCUGCCAGUGAAGAAAUGAACAAAGAAAAUCUGGGCCAGGCAGGCAUCAAAAUAAAUAGUCUUGCGCUCAACCAGAAAGUCUGUAAUCAUUUUAAGGGUA [U19C G93U]: the self-cleavage was determined as 1.5. As for GUUAACGGUCAUAGGCCAUGGAAACUAGGAGCACCAUUUCGCUGCCAGCGAAGAAACGAACAAAGAAAAUCUGGGCCAGGCAGGCAUCAAAAGAAAUAGUCUUGCGCUCAACCAGAAAGUCUGUAAUCAUUUUAAGGGUA [U49C U57C], the figure is 0.57; as for GUUAACGGUCAUAGGCCAUGGAAACUAGGAGCACCAUUUCGCUGCCAGUGAAGAAAUGAACAAAGAAAAUCUGGGCCAGGCAGGCAUCAAAAGAAAUAGUCUUGCGCUCAACCAGAAAGUCUGUAAUCAAUCUAAGGGUA [U130A U132C], 1.42; as for GUUAACGGUCAUAGGCCAUGGAAACUAGAAGCACCAUUUCGCUGCCAGUGAAGAAAUGAACAAAGAAAAUCUGGGCCAGGCAGGCAUCAAAAGAAAUAGUCUUGCGCUCAACCAGAAAGUCUGUAAUCAUUUUAAGGGCA [G29A U139C], 2.53. GUUAACGGUCAUAGGCCAUGGAAACUAGGAGCAGCAUUUCGCUGCCAGUGAAGAAAUGAACAAAGAAAAUCUGGGCCAGGCAGGCAUCAAAAGAAAUAGUCUUGCGCUCAACCAGAAAGUCUGUAAUCAUUUUAAGGGUA [C34G]: the self-cleavage was found to be 1.98. Then GUUAACGGUCAUAGGCCAUGGAAACCAGGAGCACCAUUUCGCUGCCAGUGAAGAAAUGAACAAAGAAAAUCUGGGCCAGGCAGGCACCAAAAGAAAUAGUCUUGCGCUCAACCAGAAAGUCUGUAAUCAUUUUAAGGGUA [U26C U87C], with 0.37; and GUUAACGGUCAUAGGCCAUGGAAACUAGGAGCACCAUUUCCCUGCCAGUGAUGAAAUGAACAAAGAAAAUCUGGGCCAGGCAGGCAUCAAAAGAAAUAGUCUUGCGCUCAACCAGAAAGUCUGUAAUCAUUUUAAGGGUA [G41C A52U], with 2.16.

Consider GUUAGCGGUCAUAGGCCAUGGAAACUAGGAGCACCAUUUCGCUGCCAGUGAAGAAAUGAACAAAGAAAAUCUGGGCCAGGCAGGCAUCAAAAGAAAUAGUCUUGCGCUCAGCCAGAAAGUCUGUAAUCAUUUUAAGGGUA [A5G A111G], for which the self-cleavage stood at 0.08. Then GUUAACGGUCAUAGGCCAUGGAGACUAGGAGCACCAUUUCGCUGCCAGUGAAGAAAUGAAUAAAGAAAAUCUGGGCCAGGCAGGCAUCAAAAGAAAUAGUCUUGCGCUCAACCAGAAAGUCUGUAAUCAUUUUAAGGGUA [A23G C61U], with 1.24; and GUUAACGGUCAUAGGCCAUGGAAACUAGGAGCACCAUUUCGCUGCCAGUGAAGAAAUGAACAAAGAAAAUCUGGGCCAGGCAGGCAUCAAAAUAAAUAGUCUUGCGCUCAACCAGAAAGUCUAUAAUCAUUUUAAGGGUA [G93U G123A], with 0.77; and GUUAACGGUCAUAGGCCAUGGAAACUAGGAGCACCAUUUCGCUGCCAGUGAAGAAACGAACAAAGAAAAUCUGGGCCAGGCAGGCAUCAAAAGAAAUAGUCUUGCACUCAACCAGAAAGUCUGUAAUCAUUUUAAGGGUA [U57C G106A], with 0. For the variant GUUAACGGUCAUAGGCCUUGGAAACUAGGAGCACCAUUUCGCUGCCAUUGAAGAAAUGAACAAAGAAAAUCUGGGCCAGGCAGGCAUCAAAAGAAAUAGUCUUGCGCUCAACCAGAAAGUCUGUAAUCAUUUUAAGGGUA [A18U G48U], the self-cleavage was 1.24. Turning to GUUAACGGUCAUAGGCCACGGAAACUAGGAGCACCAUUUCGCUGCCAGUGAAGAAAUGAACAAAGAGAAUCUGGGCCAGGCAGGCAUCAAAAGAAAUAGUCUUGCGCUCAACCAGAAAGUCUGUAAUCAUUUUAAGGGUA [U19C A67G], the self-cleavage amounted to 1.04. As for GUUAUCGGUCAUAGGCCAUGGAAACUAGGAGCACCAUUUCGCUGCCAGUGAAGAAAUGAACAAAGAAAAUCUGGGCCAGGCUGGCAUCAAAAGAAAUAGUCUUGCGCUCAACCAGAAAGUCUGUAAUCAUUUUAAGGGUA [A5U A82U], the figure is 0.38.
